15 molecules from patent US20240174750A1 (VIRTUOSO BINCO, published 2024) can be followed below.

Assay [1] deals with T1, extracellular domain (ECD) of human CD47 (19aa-139aa) with C-terminal 6xHis tag (human, UniProt Q08722 19-139).
T1 construct: also called recombinant CD47; recombinant human CD47
Nature of the assay: ELISA on recombinant human CD47; legend: NB: not bound.

Assay [2] concerns the target T1, extracellular domain (ECD) of human …. The assay can be described thus: ELISA, coated recombinant CD47; EC50 as grade, legend the 6th table, row 26. For orientation: An ELISA detects its analyte on a solid surface through an enzyme-linked reagent.
Description: A 96-well plate was coated overnight at 4° C. with 1 μg/ml recombinant CD47. After washing 3 times, the plate was blocked with 300 μL 1% BSA in PBST at 37° C. for 1 hour. Serially diluted antibodies were added and incubated at 37° C. for 1 hour. The plate was then washed 4 times with PBST and incubated with 1:5000 diluted 2nd antibody (Sigma, Cat #A0293) at 37° C. for 1 hour.
The target of assay [3] is T2, CD47 on the surface of CD47+ cells (human, UniProt Q08722 19-323).
T2 construct: whole, on cells; also called CD47+ cell lines; CD47 on Raji cells, HCT-15 cells, human red blood cells (RBCs), human platelets
Nature of the assay: flow cytometry, competition with SIRPA-mIgG2a on CD47+ tumor cells; IC50 as grade, legend the 8th table, row 26. In general terms: Flow cytometry measures light scatter and fluorescence of single cells or particles in a stream.
Description: Tumor cells were harvested, centrifuged, and then resuspended in FACS buffer (PBS plus 2% FBS) at a concentration of 2×10⁶ cells/mL. 100 μL of the cell suspension was dispensed into each well of a 96-well plate. The plate was centrifuged for 5 min and 300×g, and the supernatants were discarded. […] After washing twice with FACS buffer, the plates were resuspended with 300 μL FACS buffer and analyzed by flow cytometry.

Assay [4] deals with T2, CD47 on the surface of CD47+ cells. Nature of the assay: flow cytometry on CD47+ cell lines; EC50 as grade, legend the 7th table, row 26.
Description: Antibody binding to CD47+ cell lines was quantified by flow cytometry. Harvested cells were centrifuged at 2000 rpm for 5 min, resuspended in 10-15 mL ice-cold culture medium, and then counted. Cells were resuspended in blocking buffer (PBS plus 2% FBS) at a concentration of 3×10⁶ cells/mL. 100 μL of the cell suspension was dispensed into each well of a 96-well plate. Purified antibodies were diluted to the desired concentrations with blocking buffer and 100 μL of diluted antibodies were added to the well and incubated for 1 hour at 4° C. The cells were then washed 3 times with PBS plus 2% FBS. […] The cells were then washed 3 times with 200 μL PBS by centrifuging at 2000 rpm for 5 min. After the last wash, the cells were resuspended in 300 μL cold PBS and analyzed on a FACSVerse™ (BD Biosciences) flow cytometer.
In assay [5] the target is T1, extracellular domain (ECD) of human …. The assay can be described thus: SPR, Biacore 8K, antibody captured by anti-human Fc, monomeric CD47 ECD injected, 25 C, 1:1 Langmuir. (In general: Surface plasmon resonance follows binding to a sensor surface in real time, without labels.)
Description: Furthermore, binding kinetics measurements of the anti-CD47 antibodies were not affected by antibody valency in the SPR assays because antibodies were immobilized and challenged with monomeric antigens. SPR was performed on a Biacore 8K instrument (GE Healthcare). Antibodies were captured on Biacore Series S CM5 sensor chips coated with a monoclonal mouse anti-human IgG (Fc) antibody (GE Healthcare human antibody capture kit). Serial 3-fold dilutions of CD47 ECD antigen were injected at a flow rate of 30 μL/min. Each sample was analyzed with 1 min association and 10 min dissociation at room temperature (25° C.). After each injection, the chip was regenerated using 3M MgCl₂. A 1:1 Langmuir model of simultaneous fitting of kon and koff was used for kinetics analysis.
The target is the same in assay [6]. The assay can be described thus: ELISA, coated recombinant CD47, FIG. 4A-4B.
Description: (§1) A 96-well plate was coated overnight at 4° C. with 1 μg/mL recombinant CD47. After washing 3 times, the plate was blocked with 300 μL 100 BSA in PBST at 37° C. for 1 hour. Serially diluted antibodies were added and incubated at 37° C. for 1 hour. The plate was then washed 4 times with PBST and incubated with 1:5000 diluted peroxidase labeled goat anti-human IgG (Fab specific) secondary antibody (Sigma, Cat #A0293) for 1 hour at 37° C. The plate was washed again 4 times with PBST, incubated with 3,3′,5,5′-tetramethylbenzidine (TMB) substrate for 15 min at room temperature, terminated with 1N HCl, and then read at 450 nm.
The target in assay [7] is T3, extracellular domain (ECD) of cyno CD47 (4aa-126aa) with C-terminal 6xHis tag (cynomolgus monkey, UniProt Q08722 19-140 (human entry), limits assumed).
T3 construct: also called cynomolgus monkey CD47
T3 chain: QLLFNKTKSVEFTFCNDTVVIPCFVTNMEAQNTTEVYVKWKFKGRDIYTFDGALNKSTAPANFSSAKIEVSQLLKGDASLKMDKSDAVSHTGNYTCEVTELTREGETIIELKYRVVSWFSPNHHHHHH
Nature of the assay: ELISA, coated recombinant CD47, FIG. 4A-4B.
Description: as §1

Positions count from the first letter of the chain named. A value given as a limit tells only on which side of the number the result lay.

In general, EC50 refers to the concentration giving half of the maximal effect. The IC50 is the midpoint of a concentration-inhibition curve. Low values mean greater potency, high ones weaker potency. A word on the Kd: it is the free concentration of one partner at which half of the binding sites on the other are occupied at equilibrium, for simple one-to-one binding. The low end stands for a tighter complex, the high end for a looser complex.

B1: hu.18B9.3i HC_D95A (antibody, name in Kabat numbering, V domains shown)
VH: EVQLVESGGGLVQPGGSLRLSCAASGFSFNSGYMSWVRQAPGKGLEWIASIYAGSSGKTYYADWAKGRFTISKTSSKTTVYLQMNSLRAEDTAVYYCARASGGTYYTDYLYLWGQGTLVTVSS
VL: DIQMTQSPSSLSASVGDRVTITCRASEGISSYLSWYQQKPGKAPKLLIYKASTLTSGVPSRFSGSGSGTDFTLTISSLQPEDFATYYCQSTYGSSGSSGYGAAFGGGTKVEIK
notes: Alanine scan variant of hu.18B9.3i; Kabat numbering
In the case of B1, the binding result in assay [1] is given as “no binding”.

B2: hu.18B9.3i HC_D100c_A (antibody, V domains shown)
VH: B1 VH with A100D, D108A
VL: B1 VL
notes: as for B1
On to B2, for which, in assay [1], the binding result is “no binding”.

B3: hu.18B9.3i HC_G97A (antibody, name in Kabat numbering, V domains shown)
VH: B1 VH with A100D, G102A
VL: B1 VL
notes: as for B1
As for B3, the binding result in assay [1] is listed as “no binding”.

B4: hu.18B9.3i HC_Y101A (antibody, name in Kabat numbering, V domains shown)
VH: B1 VH with A100D, Y111A
VL: B1 VL
notes: as for B1
Take B4: the binding result in assay [1] was “no binding”.

B5: hu.18B9.3i HC_G98A (antibody, name in Kabat numbering, V domains shown)
VH: B1 VH with A100D, G103A
VL: B1 VL
notes: as for B1
On to B5, for which the binding result in assay [1] is “no binding”.

B6: hu.18B9.3i HC_Y100d_A (antibody, V domains shown)
VH: B1 VH with A100D, Y109A
VL: B1 VL
notes: as for B1
For B6, the binding result in assay [1] was “no binding”.

B7: R.13A2 (antibody, human IgG1, kappa, V domains shown)
VH: QSLEESGGDLVKPGASLTVTCTASGFSFSSYYYVCWVRQAPGKGLEWIACIYAGSSGDTYYASWAKGRFTISKTSSTTVTLQMTSLTAADTATYFCARGYTGYSYQFNFWGPGTLVTVSS
VL: DVVMTQTPASVEAAVGGTVTIKCQASQSISNELSWYQQKPGQPPKLLIYRASTLESGVPSRFKGSGSGTEFTLTISDLESADAATYYCQCTYITYGNAFGGGTEVVVKR
notes: Chimeric: rabbit variable domains, human IgG1 and human kappa constant regions
B7: the EC50 was over 0.5 nM in assay [2] and 0.5 to 5 nM in assay [4]. The IC50 in assay [3] was 0.1 to 1 nM.

B8: R.18B9 (antibody, human IgG1, kappa, V domains shown)
VH: QSLEESGGDLVKPGASLTLTCKASGFSFNSGYMCWVRQAPGKGLEWIACIYAGSSGKTYYASWATGRFTISKTSSTTVTLQMTSLTVADTATYFCARDDGGTYYTDYLYLWGPGTLVTVSS
VL: DVVMTQTPASVEAAVGGTVTIKCQASEGISSYLSWYQQKPGQPPKLLIYKASTLTSGVPSRFKGSGSGTDFTLTISDLESADAATYYCQCTYGSSGSSGYGAAFGGGTEVVVKR
notes: Chimeric: rabbit variable domains, human IgG1 and human kappa constant regions; also called Chimeric antibody 18B9
Take B8: the Kd in assay [5] fell in the range of 10 to 100 nM. Further, the EC50 in assay [2] is 0.01 to 0.1 nM; in assay [4], 0.5 to 5 nM. Further, the IC50 in assay [3] was in the range of 0.1 to 1 nM.

B9: hu.1D15E11-V1 (antibody, human IgG1, kappa, V domains shown)
VH: EVQLVQSGAEVKKPGASVKVSCKASGYTFTSYVMHWVRQAPGQRLEWMGYIDPYNEGTKYNEKFKGRVTITRDTSASTAYMELSSLRSEDTAVYYCSRGGMARRSFDYWGQGTLVTVSS
VL: DIQMTQSPSSLSASVGDRVTITCLASQTIGTWLTWYQQKPGKAPKLLIYAATTLAEGVPSRFSGSGSGTDFTLTISSLQPEDFATYYCQQLYSTPWTFGGGTKVEIKR
notes: Humanised variant of 1D15E11; also called hu.1D15E11-Vi; hu.1D15E11 variants
Turning to B9, the binding result in assay [6] and in assay [7] was “binds” throughout.

B10: hu.1D15E11-V4 (antibody, human IgG1, kappa, V domains shown)
VH: B9 VH with M101V
VL: B9 VL
notes: Humanised variant of 1D15E11; also called hu.1D15E11 variants
With B10, the binding result in assay [6] and in assay [7] was “binds” each time.

B11: hu.1D15E11-V3 (antibody, human IgG1, kappa, V domains shown)
VH: B9 VH with M101I
VL: B9 VL
notes: as for B10
On to B11, for which the binding result in assay [6] and in assay [7] was “binds” each time.

B12: hu.1D15E11-V2 (antibody, human IgG1, kappa, V domains shown)
VH: B9 VH with R72S
VL: B9 VL
notes: as for B10
On to B12, for which the binding result in assay [6] and in assay [7] was “binds” throughout.

B13: M.1D15E11 (antibody, human IgG1, kappa, V domains shown)
VH: EVQLQQSGPELVKPGAPVKMSCKASGYTFTSYVMHWVKQKPGQGLEWIGYIDPYNDGTKYNEKFKGKATLTSDKSSSTAYMELSSLTSEDSAVYYCSRGGMARRSFDYWGQGTTLTVSS
VL: DIQMTQSPASQSASLGESVTITCLASQTIGTWLTWYQQKPGKSPQLLIYAATTLADGVPSRFSGSGSGTKFSFKISSLQAEDFVSYYCQQLYSTPWTFGGGTKLEIKR
notes: Chimeric: mouse variable domains, human IgG1 and human kappa constant regions; also called Chimeric antibody 1D15E11
In assay [5], B13 returned a Kd of 1 to 10 nM. Besides, the EC50 in assay [2] was 0.01 to 0.1 nM; in assay [4], 0.1 to 0.5 nM. This molecule also registered an IC50 in assay [3] of 0.1 to 1 nM.

B14: R.15G10 (antibody, human IgG1, kappa, V domains shown)
VH: QSLEESGGRLVTPGTPLTLTCTASGFTISSYHMNWVRQAPGEGLEWIGIIYVGSGNADYASWAKGRFTISKASTTVDLKITSPTTEDTATYFCARGPTNTYPTYFNLWGPGTLVTVSS
VL: AFELTQTPSSVEAAVGGTVTIKCQASRSITSYLAWYQHKPGQPPTLLIYAASNVASGVSSRFKGSRSGTEYTLTISDLESADAATYYCQSYYAISTNTFGGGTEVVVKR
notes: as for B7
Take B14: the EC50 in assay [2] fell in the range of 0.01 to 0.1 nM; in assay [4] it was 0.5 to 5 nM. The IC50 in assay [3] was 0.1 to 1 nM.

B15: R.14G4 (antibody, human IgG1, kappa, V domains shown)
VH: QEQLKESGGGLVTPGGTLTLTCTASGFTITSYHMCWVRQAPGKGLEWIGCIYPNNGFTWYASWAKGRFTISKTSSTTVDLKMTSPTTEEMATYFCARGSGNSYNQLDLWGQGTLVTVSS
VL: AIVMTQTPASVSATLGGSVTINCQSSESVYRDNCLGWFQQKPGQPPKLLIYKASTLASGVPSRFKGSGSGTQFTLTISDVVSDDAATYYCAGYKSTITDGTAFGGGTEVVVKR
notes: as for B7
For B15, the EC50 in assay [2] is over 0.5 nM; in assay [4], over 5 nM. Also, the IC50 in assay [3] lay within 1 to 5 nM.
